Patent US20150158949A1 (MEDLMMUNE, published 2015)

Assays:
[1] = target: T1, IFNAR1 (Interferon alpha receptor-1) (human, UniProt P17181 28-557); assay: cell-based or functional assay
T1 sequence (looked up): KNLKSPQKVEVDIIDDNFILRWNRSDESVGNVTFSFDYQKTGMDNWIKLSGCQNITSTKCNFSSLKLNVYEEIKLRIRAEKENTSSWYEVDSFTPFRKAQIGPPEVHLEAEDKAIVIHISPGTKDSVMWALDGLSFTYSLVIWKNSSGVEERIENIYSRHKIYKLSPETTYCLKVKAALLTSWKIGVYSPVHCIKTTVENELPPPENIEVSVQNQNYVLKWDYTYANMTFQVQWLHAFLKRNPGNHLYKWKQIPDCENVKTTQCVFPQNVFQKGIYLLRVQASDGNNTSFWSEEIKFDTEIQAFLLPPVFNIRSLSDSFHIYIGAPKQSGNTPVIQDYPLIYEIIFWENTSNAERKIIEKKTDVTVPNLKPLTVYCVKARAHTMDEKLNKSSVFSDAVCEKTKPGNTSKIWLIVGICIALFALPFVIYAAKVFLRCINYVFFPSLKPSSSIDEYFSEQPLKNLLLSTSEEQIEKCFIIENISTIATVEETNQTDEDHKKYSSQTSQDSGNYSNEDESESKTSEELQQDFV

[2] = target: T1, IFNAR1 (Interferon alpha receptor-1); assay: live-cell confocal fluorescence imaging of IFNAR1-expressing THP-1 cells, 1 µg/mL, stained on ice, FcR blocked
Experimental: Reaction mixtures were purified from unincorporated fluorescent molecules using size-exclusion mini-columns provided in the kit. IFNAR1-expressing THP-1 cells were maintained in suspension using RPMI growth medium containing 10% FBS, and seeded in a fresh growth medium at 2×10^5 cells/mL overnight prior to the experiments. On the day of experiments, THP-1 cells were washed and resuspended to a concentration of 3×10⁶ cells/mL.
Cell suspensions were first stained for 10-20 min with cytosol dye, CFSE, from Invitrogen (Life Technologies Corp, Carlsbad, Calif.) in a CO₂ incubator at 37° C. Excess CFSE was removed by two washes with 1×PBS. […] Following the removal of unincorporated antibodies by centrifugation, cells were resuspended to initial volumes, and dispensed into the wells of 384-well imaging plates.

Row | IC50 (nM), bootstrap median [1] [nM] | IC50 (nM): Potency, MEDI-546 concentration corresponding to half-maximum inhibition of GS production [1] [nM] | binding result [2] | Binder
1 | 0.772 | 0.978 |  | MEDI-546 (antibody, human IgG1, V domains shown) VH: EVQLVQSGAEVKKPGESLKISCKGSGYIFTNYWIAWVRQMPGKCLESMGIIYPGDSDIRYSPSFQGQVTISADKSITTAYLQWSSLKASDTAMYYCARHDIEGFDYWGRGTLVTVSS VL: EIVLTQSPGTLSLSPGERATLSCRASQSVSSSFFAWYQQKPGQAPRLLIYGASSRATGIPDRLSGSGSGTDFTLTITRLEPEDFAVYYCQQYDSSAITFGQGTRLEIK
2 |  |  | binds | MEDI-546-Alexa647 (antibody, human IgG1, V domains shown, Alexa647 dye conjugated to the antibody (sites and chain not stated)) VH: EVQLVQSGAEVKKPGESLKISCKGSGYIFTNYWIAWVRQMPGKCLESMGIIYPGDSDIRYSPSFQGQVTISADKSITTAYLQWSSLKASDTAMYYCARHDIEGFDYWGRGTLVTVSS VL: EIVLTQSPGTLSLSPGERATLSCRASQSVSSSFFAWYQQKPGQAPRLLIYGASSRATGIPDRLSGSGSGTDFTLTITRLEPEDFAVYYCQQYDSSAITFGQGTRLEIK
